{"source": "paper PMC5801413", "key": {"Human glu-plasminogen": {"molecular_target": "Human glu-plasminogen", "test": "ELISA", "conditions": "5 μg/ml immobilized CbiA protein, 10 μg/ml plasminogen, polyclonal antibody 1:1,000, read off a plot"}, "[1]": {"molecular_target": "His6-tagged CbiA of B. miyamotoi (B. miyamotoi)", "test": "ELISA; proteins (5 μg/ml) immobilised, plasminogen in the presence of increasing concentrations of NaBr; binding without NaBr set to 100%"}, "[2]": {"molecular_target": "His6-tagged CbiA of B. miyamotoi (B. miyamotoi)", "test": "ELISA; CbiA (5 μg/ml) immobilised, increasing concentrations of plasminogen; non-linear regression, one-site specific binding model; apparent dissociation constant"}, "[3]": {"molecular_target": "His6-tagged CbiA of B. miyamotoi (B. miyamotoi)", "test": "ELISA; proteins (5 μg/ml) immobilised, plasminogen in the presence of increasing concentrations of the lysine analog tranexamic acid; binding without tranexamic acid set to 100%"}}, "note": "pKd: −log10 of the molar value."}
{"substance": "His6-tagged CbiA of B. miyamotoi K153A; K154A; K162A; K188A", "values": [{"measurement": "response (Absorbance at 490 nm)", "setting": "Human glu-plasminogen; parent: est. 0.72", "value": 1}]}
{"substance": "His6-tagged CbiA of B. miyamotoi K153A", "values": [{"measurement": "response (Absorbance at 490 nm)", "setting": "Human glu-plasminogen; parent: est. 0.72", "value": 1.1}]}
{"substance": "His6-tagged CbiA of B. miyamotoi R145A", "values": [{"measurement": "response (Absorbance at 490 nm)", "setting": "Human glu-plasminogen; parent: est. 0.78", "value": 0.66}]}
{"substance": "His6-tagged CbiA of B. miyamotoi K154A; K162A; K188A", "values": [{"measurement": "response (Absorbance at 490 nm)", "setting": "Human glu-plasminogen; parent: est. 0.72", "value": 1}]}
{"substance": "His6-tagged CbiA of B. miyamotoi K154A", "values": [{"measurement": "response (Absorbance at 490 nm)", "setting": "Human glu-plasminogen; parent: est. 0.72", "value": 0.83}]}
{"substance": "His6-tagged CbiA of B. miyamotoi K154A; R156A", "values": [{"measurement": "response (Absorbance at 490 nm)", "setting": "Human glu-plasminogen; parent: est. 0.78", "value": 0.58}]}
{"substance": "His6-tagged CbiA of B. miyamotoi R163A", "values": [{"measurement": "response (Absorbance at 490 nm)", "setting": "Human glu-plasminogen; parent: est. 0.78", "value": 0.74}]}
{"substance": "His6-tagged CbiA of B. miyamotoi K154A; K162A", "values": [{"measurement": "response (Absorbance at 490 nm)", "setting": "Human glu-plasminogen; parent: est. 0.72", "value": 0.9}]}
{"substance": "His6-tagged CbiA of B. miyamotoi R185A", "values": [{"measurement": "response (Absorbance at 490 nm)", "setting": "Human glu-plasminogen; parent: est. 0.78", "value": 0.81}]}
{"substance": "His6-tagged CbiA of B. miyamotoi R156A", "values": [{"measurement": "response (Absorbance at 490 nm)", "setting": "Human glu-plasminogen; parent: est. 0.78", "value": 0.6}]}
{"substance": "Human glu-plasminogen (natural protein)", "values": [{"measurement": "percent of binding at 250 mM NaBr (without NaBr = 100%)", "setting": "[1]", "value": 43, "unit": "%"}, {"measurement": "pKd", "setting": "[2]", "value": 6.46}, {"measurement": "percent decrease of binding with 0.1 mM tranexamic acid", "setting": "[3]", "value": "> 17", "unit": "%"}, {"measurement": "percent of binding at 10 mM tranexamic acid (without tranexamic acid = 100%)", "setting": "[3]", "value": 48, "unit": "%"}]}
{"substance": "His6-tagged CbiA of B. miyamotoi K162A", "values": [{"measurement": "response (Absorbance at 490 nm)", "setting": "Human glu-plasminogen; parent: est. 0.72", "value": 1}]}
{"substance": "His6-tagged CbiA of B. miyamotoi K188A", "values": [{"measurement": "response (Absorbance at 490 nm)", "setting": "Human glu-plasminogen; parent: est. 0.72", "value": 0.81}]}
